Experimental data published in patent US20240262915A1 (NANJING SANHOME PHARMACEUTICAL, published 2024).
Where two headings read alike, the source gives them in different places.

T1: Human TIGIT-His protein (Sino Biological, 10917-H08H) (human, UniProt Q495A1 22-141)
T1 sequence (looked up): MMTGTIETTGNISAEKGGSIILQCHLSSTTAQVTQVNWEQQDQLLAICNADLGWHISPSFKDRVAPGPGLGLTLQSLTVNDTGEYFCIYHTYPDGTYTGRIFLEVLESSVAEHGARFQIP

T2: full-length TIGIT on hTIGIT-CHO-K1 cells (human, UniProt Q495A1 22-244)
T2 construct: CHO-K1 cells stably transfected with pTargeT-TIGIT; also called TIGIT on cell surface
T2 sequence: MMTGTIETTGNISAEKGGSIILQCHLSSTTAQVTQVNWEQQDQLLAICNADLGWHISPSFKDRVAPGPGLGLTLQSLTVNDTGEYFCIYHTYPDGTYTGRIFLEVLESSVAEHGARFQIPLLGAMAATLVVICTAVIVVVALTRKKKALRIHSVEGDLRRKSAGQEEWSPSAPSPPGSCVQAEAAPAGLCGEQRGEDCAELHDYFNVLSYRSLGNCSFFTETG

T3: TIGIT-his (extracellular region of human TIGIT protein fused with his) (human, UniProt Q495A1 22-141)
T3 construct: also called antigen TIGIT-his
T3 sequence: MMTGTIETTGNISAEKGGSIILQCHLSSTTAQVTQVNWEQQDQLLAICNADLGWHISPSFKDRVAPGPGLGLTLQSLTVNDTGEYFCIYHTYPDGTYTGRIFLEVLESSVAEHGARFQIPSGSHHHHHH

T4: TIGIT-mFc (extracellular region of human TIGIT with mIgG1-Fc tag) (human)
T4 construct: A bought TIGIT-mFc (Acro Biosystems TIT-H5253) is used for immunization; also called recombinant humanized TIGIT-mFc
T4 chain: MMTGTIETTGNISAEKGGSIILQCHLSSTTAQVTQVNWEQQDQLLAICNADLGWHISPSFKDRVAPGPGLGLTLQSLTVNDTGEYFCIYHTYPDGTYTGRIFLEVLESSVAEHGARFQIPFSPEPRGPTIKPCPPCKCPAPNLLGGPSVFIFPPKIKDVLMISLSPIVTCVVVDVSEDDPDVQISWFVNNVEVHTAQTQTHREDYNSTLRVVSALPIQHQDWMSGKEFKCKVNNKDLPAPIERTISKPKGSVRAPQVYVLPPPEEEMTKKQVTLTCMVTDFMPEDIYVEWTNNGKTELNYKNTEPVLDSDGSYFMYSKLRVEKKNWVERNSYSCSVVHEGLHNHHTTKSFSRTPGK

B1: SHS006-T-Hu23-53 (antibody, IgG4, V domains shown)
VH: EVQLVESGGGLVQPGGSLRLSCAASGFTFSDHWMSWVRQAPGKTMEWIGNIQYDGSYTNYAPSLKNRFTISRDNAKNSLYLQMNSLRAEDTATYYCTRGHFRITMASMGASASVYWGQGTMVTVSS
VL: DIQMTQSPSSLSASVGDRVTITCRTSQDIGNSLRWFQQKPGKAPKLLIHGATNLANGVPSRFSGSGSGTDFTLTISSLQPEDFATYYCLQHNEYPLTFGQGTKLEIK
notes: Humanized; also called SHS006-HuT23-53; HuT23-53
B2: HuPL721-T2353-ScFab (bispecific antibody, human IgG4 S228P, kappa)
chain 1: DIQMTQSPSSLSASVGDRVTITCRTSQDIGNSLRWFQQKPGKAPKLLIHGATNLANGVPSRFSGSGSGTDFTLTISSLQPEDFATYYCLQHNEYPLTFGCGTKLEIKRTVAAPSVFIFPPSDEQLKSGTASVVCLLNNFYPREAKVQWKVDNALQSGNSQESVTEQDSKDSTYSLSSTLTLSKADYEKHKVYACEVTHQGLSSPVTKSFNRGECGGGGSGGGGSGGGGSGGGGSGGGGSGGGGSGGGGSGGGGSEVQLVESGGGLVQPGGSLRLSCAASGFTFSDHWMSWVRQAPGKCMEWIGNIQYDGSYTNYAPSLKNRFTISRDNAKNSLYLQMNSLRAEDTATYYCTRGHFRITMASMGASASVYWGQGTMVTVSSASTKGPSVFPLAPCSRSTSESTAALGCLVKDYFPEPVTVSWNSGALTSGVHTFPAVLQSSGLYSLSSVVTVPSSSLGTKTYTCNVDHKPSNTKVDKRVESKYGPPCPPCPAPEFLGGPSVFLFPPKPKDTLMISRTPEVTCVVVDVSQEDPEVQFNWYVDGVEVHNAKTKPREEQFNSTYRVVSVLTVLHQDWLNGKEYKCKVSNKGLPSSIEKTISKAKGQPREPQVYTLPPCQEEMTKNQVSLWCLVKGFYPSDIAVEWESNGQPENNYKTTPPVLDSDGSFFLYSRLTVDKSRWQEGNVFSCSVMHEALHNHYTQKSLSLSLGK
chain 2: not shown
notes: each is light chain - GGGGS linker - heavy chain, IgG4
B3: HuPL1642-T2353-ScFab (bispecific antibody, human IgG4 S228P, kappa)
chain 1: B2 chain 1
chain 2: DIVMTQSPDSLAVSLGERVTMRCKSSQSLSWSENQNNYLSWYQQKPGQPPKLLIYGASIRESGVPDRFSGSGSGTDFTLTISSVQAEDVGVYYCQHNHGSFLPYTFGCGTKLEIKRTVAAPSVFIFPPSDEQLKSGTASVVCLLNNFYPREAKVQWKVDNALQSGNSQESVTEQDSKDSTYSLSSTLTLSKADYEKHKVYACEVTHQGLSSPVTKSFNRGECGGGGSGGGGSGGGGSGGGGSGGGGSGGGGSGGGGSGGGGSQVQLVQSGAEVAKPGASVKMSCKASGYTFTRNTMHWIKQAPGQCLEWIGFIDPHNTYTRYNQKFKDRATLTADTSASTAYMELSSLRSEDTAVYYCARWPMDYWGQGTLVTVSSASTKGPSVFPLAPCSRSTSESTAALGCLVKDYFPEPVTVSWNSGALTSGVHTFPAVLQSSGLYSLSSVVTVPSSSLGTKTYTCNVDHKPSNTKVDKRVESKYGPPCPPCPAPEFLGGPSVFLFPPKPKDTLMISRTPEVTCVVVDVSQEDPEVQFNWYVDGVEVHNAKTKPREEQFNSTYRVVSVLTVLHQDWLNGKEYKCKVSNKGLPSSIEKTISKAKGQPREPQVCTLPPSQEEMTKNQVSLSCAVKGFYPSDIAVEWESNGQPENNYKTTPPVLDSDGSFFLVSRLTVDKSRWQEGNVFSCSVMHEALHNHYTQKSLSLSLGK
B4: HuPL1642-T2353-ScFv (bispecific antibody, human IgG4 S228P, kappa)
heavy: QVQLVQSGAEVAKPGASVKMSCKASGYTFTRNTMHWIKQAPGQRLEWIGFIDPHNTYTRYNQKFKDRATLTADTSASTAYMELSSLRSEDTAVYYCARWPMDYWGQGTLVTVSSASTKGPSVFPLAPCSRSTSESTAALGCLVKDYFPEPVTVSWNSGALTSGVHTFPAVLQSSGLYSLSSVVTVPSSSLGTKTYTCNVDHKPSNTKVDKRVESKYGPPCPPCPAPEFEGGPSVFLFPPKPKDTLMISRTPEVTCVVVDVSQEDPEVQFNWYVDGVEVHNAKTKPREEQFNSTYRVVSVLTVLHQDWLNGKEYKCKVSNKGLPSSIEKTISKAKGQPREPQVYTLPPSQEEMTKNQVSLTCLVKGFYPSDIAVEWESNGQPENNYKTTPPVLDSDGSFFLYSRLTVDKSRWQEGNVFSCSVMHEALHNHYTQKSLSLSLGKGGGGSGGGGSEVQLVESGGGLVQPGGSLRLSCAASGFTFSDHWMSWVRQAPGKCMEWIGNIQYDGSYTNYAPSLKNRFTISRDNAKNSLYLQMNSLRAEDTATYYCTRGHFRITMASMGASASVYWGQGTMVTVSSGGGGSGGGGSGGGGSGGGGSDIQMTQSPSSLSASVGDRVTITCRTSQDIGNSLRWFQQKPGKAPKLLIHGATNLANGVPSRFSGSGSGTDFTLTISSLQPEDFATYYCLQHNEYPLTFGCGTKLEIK
light: DIVMTQSPDSLAVSLGERVTMRCKSSQSLSWSENQNNYLSWYQQKPGQPPKLLIYGASIRESGVPDRFSGSGSGTDFTLTISSVQAEDVGVYYCQHNHGSFLPYTFGQGTKLEIKRTVAAPSVFIFPPSDEQLKSGTASVVCLLNNFYPREAKVQWKVDNALQSGNSQESVTEQDSKDSTYSLSSTLTLSKADYEKHKVYACEVTHQGLSSPVTKSFNRGEC
notes: Symmetrical structure: PL1642-T2353-scFv-HC and HuPL1642-VL2

Experiments:
[1] = molecular target: T1, Human TIGIT-His protein (Sino …); assay: ELISA, human TIGIT-His coated
[2] = molecular target: T2, full-length TIGIT on hTIGIT-CHO-K1 cells; assay: FACS on hTIGIT-CHO-K1 cells
[3] = molecular target: T3, TIGIT-his (extracellular region of …); assay: BLI, Fortebio Octet RED96, SA sensor
[4] = molecular target: T4, TIGIT-mFc (extracellular region of …); assay: ELISA, blocking of TIGIT-mFc binding to coated CD155-hFc (competitor CD155-hFc)
[5] = molecular target: T3, TIGIT-his (extracellular region of …); assay: BLI, Fortebio Octet RED96, antibody on AHC sensor, TIGIT-his in solution
[6] = molecular target: T2, full-length TIGIT on hTIGIT-CHO-K1 cells; assay: FACS on hTIGIT-CHO-K1 cells; remark: listed apart in the source
PD-L1-his = molecular target: T5, PD-L1-his (human, UniProt Q9NZQ7 19-238, limits assumed); assay: BLI, Fortebio Octet RED96, antibody on AHC sensor, PD-L1-his in solution
T5 construct: also called human PD-L1 protein

[7] = molecular target: T6, human PD-L1 on hPD-L1-CHO-K1 cells (human, UniProt Q9NZQ7 19-290); assay: FACS, blocking of PD-1-mFc binding to hPD-L1-CHO-K1 cells (competitor PD-1-mFc)
T6 construct: whole, on cells; The making of this cell line is not described

[8] = molecular target: T4, TIGIT-mFc (extracellular region of …); assay: FACS, blocking of TIGIT-mFc binding to cells (TIGIT/CD155; cells printed as hTIGIT-CHO-K1)
[9] = molecular target: T6, human PD-L1 on hPD-L1-CHO-K1 cells; assay: FACS on hPD-L1-CHO-K1 cells

T6 sequence (Q9NZQ7 19-290): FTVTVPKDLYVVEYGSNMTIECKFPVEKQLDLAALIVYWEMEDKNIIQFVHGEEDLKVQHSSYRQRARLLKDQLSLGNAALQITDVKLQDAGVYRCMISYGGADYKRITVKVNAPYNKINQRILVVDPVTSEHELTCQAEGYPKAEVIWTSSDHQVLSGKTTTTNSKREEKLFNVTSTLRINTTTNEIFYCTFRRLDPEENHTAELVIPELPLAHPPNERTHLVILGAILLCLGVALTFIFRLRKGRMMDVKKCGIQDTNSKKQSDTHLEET
T5 sequence (Q9NZQ7 19-238 limits assumed): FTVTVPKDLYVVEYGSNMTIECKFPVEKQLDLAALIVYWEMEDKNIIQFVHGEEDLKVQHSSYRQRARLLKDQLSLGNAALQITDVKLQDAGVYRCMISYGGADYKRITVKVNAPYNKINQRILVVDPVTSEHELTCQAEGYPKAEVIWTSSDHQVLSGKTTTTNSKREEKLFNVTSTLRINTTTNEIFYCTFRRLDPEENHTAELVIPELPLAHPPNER

Binder | EC50 [1] [nM] | EC50 [2] [nM] | Kd [3] [nM] | koff [3] [s⁻¹] | kon [3] [M⁻¹ s⁻¹] | IC50 [4] [nM] | Kd [5] [nM] | koff [5] [s⁻¹] | kon [5] [M⁻¹ s⁻¹] | EC50 [6] [nM] | Kd (PD-L1-his) [nM] | koff (PD-L1-his) [s⁻¹] | kon (PD-L1-his) [M⁻¹ s⁻¹] | IC50 [7] [nM] | IC50 [8] [nM] | EC50 [9] [nM]
B1 | 2.43 | 0.199 | 1.14 | 0.00151 | 1.33e+06 | 1.01 | 2.43 | 0.00192 | 792000 |  |  |  |  |  |  | 
B2 |  |  |  |  |  |  | 3.06 | 0.00333 | 1.09e+06 | 1.3 | 1.32 | 0.000273 | 207000 | 3.19 | 4.08 | 1.77
B3 |  |  |  |  |  |  | 13.9 | 0.00487 | 350000 |  | 1.15 | 0.000212 | 184000 |  | 1.51 | 
B4 |  |  |  |  |  |  | 2.74 | 0.00239 | 872000 |  | 2.08 | 0.000326 | 157000 |  | 1.68 | 0.955
